Starred links: 1 amine or outer side, 2 acyl side, 3 side chain; linkers in the order of their positions; H or OH if unused. Positions of bridges follow the written chain, without caps; N, C: chain ends. Groups on a side chain read outwards from the residue. *: point of attachment. γGlu = O=C(O)[C@H](CCC(=O)[*:2])N[*:1]; Palmitoyl = CCCCCCCCCCCCCCCC(=O)*; Isovaleryl = CC(C)CC(=O)*

B1: RI-Mini Hepcidin (peptide)
peptide: FICIPFHTD
modifications: all residues are D-amino acids (retro inverse of mini-hepcidin); C-terminal NH2 (amide)
B2: Compound 31 (peptide)
peptide: DTHFPCIKFXX
modifications: N-terminal isovaleric acid on each subunit; the two subunits are joined by IDA-[βala] that carries Peg2-Palm
B3: Compound 32 (peptide)
peptide: DTHFPCIKFXX
modifications: N-terminal isovaleric acid on each subunit; the two subunits are joined by IDA-[βala] that carries Peg11-Palm
B4: Compound 13 (peptide)
peptide: DTHFPCIKFKPRSKGCK
modifications: N-terminal isovaleric acid; Lys 10 carries isoGlu-Myristic acid; C-terminal NH2 (amide)
B5: Compound 10 (peptide)
peptide: DTHFPCIKFKPRSKXC
modifications: N-terminal isovaleric acid; Lys 10 carries IsoGlu-Palm; Sar (sarcosine) at 15; C-terminal NH2 (amide)
B6: Compound 19 (peptide)
peptide: DTHFPCIKFKPRSKGCK
modifications: N-terminal isovaleric acid; Lys 10 carries PEG11-Myristic acid; C-terminal NH2 (amide)
B7: Compound 6 (peptide)
peptide: DTHFPCIKFKPRSKXCK
modifications: N-terminal isovaleric acid; Lys 10 carries IsoGlu-Palm; Sar (sarcosine) at 15; C-terminal NH2 (amide)
B8: Compound 15 (peptide)
peptide: DTHFPCIKFKPRSKGCK
modifications: N-terminal isovaleric acid; Lys 10 carries isoGlu-Isovaleric acid; C-terminal NH2 (amide)
B9: Compound 12 (peptide)
peptide: DTHFPCIKFKPRSKGCK
modifications: N-terminal isovaleric acid; Lys 10 carries isoGlu-Lauric acid; C-terminal NH2 (amide)
B10: Compound 24 (peptide)
peptide: DTHFPCIKFKPRSKXCK
modifications: N-terminal isovaleric acid; Lys 10 carries Ahx-Palm; Sar (sarcosine) at 15; C-terminal NH2 (amide)
B11: Compound 14 (peptide)
peptide: DTHFPCIKFKPRSKGCK
modifications: N-terminal isovaleric acid; Lys 10 carries isoGlu-Bioitin (biotin); C-terminal NH2 (amide)
B12: Compound 18 (peptide)
peptide: DTHFPCIKFKPRSKGCK
modifications: N-terminal isovaleric acid; Lys 10 carries PEG11-Lauric acid; C-terminal NH2 (amide)

The first assay addresses T1, human ferroportin (SLC40A1) fused in frame with GFP, stably expressed in HEK293 cells (human, UniProt Q9NP59 1-571).
T1 sequence (looked up): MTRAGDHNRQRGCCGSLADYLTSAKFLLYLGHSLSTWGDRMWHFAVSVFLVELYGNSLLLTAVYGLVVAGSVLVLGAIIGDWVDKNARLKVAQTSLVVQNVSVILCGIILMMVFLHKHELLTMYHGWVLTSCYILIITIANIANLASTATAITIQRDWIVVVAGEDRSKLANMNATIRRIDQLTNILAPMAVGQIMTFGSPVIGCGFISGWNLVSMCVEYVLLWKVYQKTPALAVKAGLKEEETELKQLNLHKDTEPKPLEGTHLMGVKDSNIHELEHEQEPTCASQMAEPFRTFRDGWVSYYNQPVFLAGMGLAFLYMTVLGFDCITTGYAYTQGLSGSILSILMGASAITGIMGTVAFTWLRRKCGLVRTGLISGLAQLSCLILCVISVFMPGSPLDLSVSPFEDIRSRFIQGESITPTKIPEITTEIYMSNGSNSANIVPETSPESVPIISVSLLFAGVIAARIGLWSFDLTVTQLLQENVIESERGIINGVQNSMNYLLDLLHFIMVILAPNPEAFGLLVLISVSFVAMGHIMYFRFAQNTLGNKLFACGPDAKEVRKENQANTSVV
Kind of assay: cell-based or functional assay.
On to B1, for which the “Potency EC50 (nM), ferroportin degradation in ferroportin-GFP HEK293 cells” value is > 10000 nM. The same measure, in the same setting: with H-DTHFPICIF-NH2 [Mini-Hepcidin 1-9] the figure was 712 nM.

The next assay has as its target T1, human ferroportin (SLC40A1) fused in …. Put plainly: cell-based or functional assay. This is another data set of the same source.
Turning to Isovaleryl-DTHFPCIRFK([γGlu-Octanoic acid])-NH2 (also: dimer: two subunits joined at their C-termini through the Lys linker) [Compound 30], the “HEK-GFP cell based assay: potency EC50 (loss of ferroportin-GFP fluorescence)” value was 18 nM. As for B2, the “HEK-GFP cell based assay: potency EC50 (loss of ferroportin-GFP fluorescence)” value was 8 nM. On the same count and under the same terms, with B3 the figure was 13 nM.

The target is the same in a further assay. Put plainly: cell-based or functional assay. The source holds these as a separate data set.
In the case of B4, the “HEK-GFP cell based assay: potency EC50 (loss of ferroportin-GFP fluorescence)” value was 10 nM.

On to B5, for which the “HEK-GFP cell based assay: potency EC50 (loss of ferroportin-GFP fluorescence)” value came to 10 nM. Still for that read-out and setting: the figure for DTHFPCIKFKPRSKGCK (N-terminal isovaleric acid; Lys 10 carries Ac (acetyl); C-terminal NH2 (amide)) [Compound 25] is 14 nM; for DTHFPCIKFKPRSKGCK (N-terminal isovaleric acid; Lys 10 carries PEG8; C-terminal NH2 (amide)) [Compound 21] it is 32 nM. The same measure, in the same setting: the figure for DTHFPCIKFKPRSKGCK (N-terminal isovaleric acid; Lys 10 carries PEG11-Palm; C-terminal NH2 (amide)) [Compound 17] is 30 nM; for B6 it is 30 nM; for DTHFPCIKFKPRSKGC (N-terminal isovaleric acid; Lys 10 carries IsoGlu-Palm; C-terminal NH2 (amide)) [Compound 9] it is 11 nM.

With B7, the “HEK-GFP cell based assay: potency EC50 (loss of ferroportin-GFP fluorescence)” value worked out at 11 nM. Same read-out and setting: the figure for B8 is 26 nM. The same measure, in the same setting: the figure for B9 is 14 nM; for DTHFPCIKFKPRSKGCK (N-terminal isovaleric acid; Lys 10 carries Palm; C-terminal NH2 (amide)) [Compound 20] it is 19 nM; for B10 it is 10 nM. The same measure, in the same setting: with DTHFPCIKFKPRSKGCK (N-terminal isovaleric acid; Lys 10 carries Ahx-Palm; C-terminal NH2 (amide)) [Compound 22] the figure was 18 nM; with B11, 29 nM; with Isovaleryl-DTHFPCKKFK([γGlu-Palmitoyl])PRSKGCK-NH2 (disulfide 6-16 (inferred)) [Compound 11], 22 nM. As to DTHFPCIKFKPRSKGCK (N-terminal isovaleric acid; Lys 10 carries PEG2-Palm; C-terminal NH2 (amide)) [Compound 16], the “HEK-GFP cell based assay: potency EC50 (loss of ferroportin-GFP fluorescence)” value was 36 nM. With B12, the “HEK-GFP cell based assay: potency EC50 (loss of ferroportin-GFP fluorescence)” value is 36 nM.

The record behind these values is US20190002503A1 (published 2019).
